Results: paper PMC11804793, “Characterization of a C-methyltransferase from Streptomyces griseoviridis – crystal structure, mechanism, and substrate scope” (Chemical Science, 2025)
Blank lines part the entries; values can stand above or below the molecule they belong to.

What was measured:
SgMT = target: T1, SgMT (Streptomyces griseoviridis, UniProt A0A918GRY4); test: X-ray crystallography, […] Å; type: binding; conditions: non-methylated form of the cofactor, co-crystallised; cWW in the sample but not seen in density
T1 construct: gene GCM10010238_52040; C-terminally His-tagged for kinetics, produced in E. coli BL21 (DE3), Ni-NTA purified; dimer; residues before T7 disordered in crystal
T1 sequence (A0A918GRY4 1-269): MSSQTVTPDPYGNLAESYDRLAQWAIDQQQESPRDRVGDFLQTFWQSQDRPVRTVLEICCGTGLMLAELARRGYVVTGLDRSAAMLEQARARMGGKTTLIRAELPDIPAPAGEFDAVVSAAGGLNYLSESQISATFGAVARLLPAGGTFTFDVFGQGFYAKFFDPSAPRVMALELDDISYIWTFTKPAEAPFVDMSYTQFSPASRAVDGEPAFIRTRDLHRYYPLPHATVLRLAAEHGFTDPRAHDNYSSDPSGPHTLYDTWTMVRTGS

[1] = target: SAM-dependent indole C3-methyltransferase SgMT from Streptomyces griseoviridis (Streptomyces griseoviridis); test: crystal structure; SgMT crystallised in the presence of SAH (cWW included in the sample but not seen); space group P4(1)2(1)2, three protein chains per asymmetric unit; dmin 1.47 Å
[2] = substrate: O=C1N[C@@H](Cc2c[nH]c3ccccc23)C(=O)N[C@H]1Cc1c[nH]c2ccccc12; test: MTase Glo luminescence assay (SAH formation), Michaelis-Menten; type: biochemical, Streptomyces griseoviridis; conditions: co-substrate SAM; C-terminally His-tagged enzyme

Molecule: Nc1ncnc2c1ncn2[C@@H]1O[C@H](CSCC[C@H](N)C(=O)O)[C@@H](O)[C@H]1O [SAH]
X-ray crystallography, 1.47 Å (SgMT): we crystallised the protein in the presence of the cofactor (using the non-methylated form, SAH)

stoichiometry N [1]: 2
Molecule: SAM-dependent indole C3-methyltransferase SgMT from Streptomyces griseoviridis (enzyme)

B1: SgMT (Streptomyces griseoviridis) (protein)
chain: T1 sequence (A0A918GRY4 1-269)
notes: C-terminally His-tagged for kinetics, produced in E. coli BL21 (DE3), Ni-NTA purified; dimer; residues before T7 disordered in crystal
Km [2]: 10.53 ± 2.01 µM
kcat [2]: 0.0025 s⁻¹
